Laboratory results from article PMC3415985.
One block for each substance: values may come before it.

Key:
Experiment in all cases: AUC
[1] = biological target: BirA D176A (Escherichia coli) (UniProt P06709)
[2] = biological target: BirA G142A (Escherichia coli) (UniProt P06709)
[3] = biological target: BirA I280A (Escherichia coli) (UniProt P06709)
[4] = biological target: BirA K172A (Escherichia coli) (UniProt P06709)

Kd [1]: > 6 mM
Substance: BirA D176A (from UniProt P06709 1-321) (enzyme)

Kd [2]: > 17 mM
Substance: BirA G142A (from UniProt P06709 1-321) (enzyme)

Kd [3]: > 4 mM
Substance: BirA I280A (from UniProt P06709 1-321) (enzyme)

Kd [4]: > 0.7 mM
Substance: BirA K172A (from UniProt P06709 1-321) (enzyme)
